Test results as given in US20220169699A1 (published 2022).

B1: murine PD-1-transmembrane PD-1-CD28 fusion protein (PTM) (receptor)
chain: LEVPNGPWRSLTFYPAWLTVSEGANATFTCSLSNWSEDLMLNWNRLSPSNQTEKQAAFCNGLSQPVQDARFQIIQLPNRHDFHMNILDTRRNDSGIYLCGAISLHPKAKIEESPGAELVVTERILETSTRYPSPSPKPEGRFQGMVIGIMSALVGIPVLLLLAWALNSRRNRLLQSDYMNMTPRRPGLTRKPYQPYAPARDFAAYRP
notes: Expressed on retrovirally transduced primary murine T cells; The entry starts at PD-1 residue 1, so it includes the signal peptide; also called mPTM; PTM fusion protein

How the values were obtained:
[1] = molecular target: murine PD-1-transmembrane PD-1-CD28 fusion protein (PTM) (murine); assay: cell-based or functional assay
[2] = molecular target: T1, recombinant murine PD-L1 Fc chimera (R&D Systems) (murine, UniProt Q9EP73 19-238); assay: flow cytometry; transduced murine T cells incubated with recombinant PD-L1-Fc
T1 construct: also called recombinant PD-L1; recombinant PD-L1-Fc; not shown: Fc part of the bought R&D Systems chimera (detected with anti-human IgG)
T1 sequence (Q9EP73 19-238, change not shown): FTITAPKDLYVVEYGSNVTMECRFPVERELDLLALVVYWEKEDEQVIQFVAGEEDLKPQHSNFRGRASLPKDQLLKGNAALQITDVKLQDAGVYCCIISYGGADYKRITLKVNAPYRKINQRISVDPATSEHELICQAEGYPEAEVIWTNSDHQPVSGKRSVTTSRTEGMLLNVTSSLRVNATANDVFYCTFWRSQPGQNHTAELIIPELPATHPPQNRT

| Molecule | IFN-γ release in coculture of PTM-transduced OT-1 T cells with tumor cells [1] [ng/mL] | binding result [2] |
| --- | --- | --- |
| full length murine PD-L1 on Panc02-OVA-PD-L1 tumor cells (from UniProt Q9EP73 19-290) (ligand) | 545 | – |
| B1 | – | binds |
